Reference: US20260027209A1

Biological target: human Claudin-6 (human) (UniProt P56747)
Assay: flow cytometry on Dubca.huCLDN6.Luc cells against Dubca cells

UniProt P56747, sequence (P56747 whole entry): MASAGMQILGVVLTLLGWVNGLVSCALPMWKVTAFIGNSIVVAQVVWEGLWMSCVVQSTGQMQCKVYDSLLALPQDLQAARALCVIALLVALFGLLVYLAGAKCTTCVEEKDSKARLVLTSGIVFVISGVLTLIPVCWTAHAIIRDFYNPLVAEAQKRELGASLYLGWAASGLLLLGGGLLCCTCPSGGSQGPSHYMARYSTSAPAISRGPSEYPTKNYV

- MFI fold over untransduced Dubca cells: 203 fold
Substance: human CLDN6 AlexaFluor 700-conjugated antibody (R&D, Cat. No. FAB3656N)
